Tests used:
[1] = tested on: ex-vivo rat eyes
Experimental: In order to investigate the efficacy of 3OC12-HSL as drug delivery enhancer in intact tissue, bevacizumab (250 μg/mL: […]) and aflibercept (40 mg/mL: 348 μM) were applied with and without 3OC12-HSL to ex-vivo rat eyes, and the distribution of drugs was visualised within sagittal ocular cryosections by confocal microscopy. A further set of experiments tested efficacy of 3OC12-HSL via ex vivo porcine skin.
Six hooded rats with pigmented eyes, weighing 280-300 g and aged 7-8 weeks were provided by Bio-Support Unit at the Queen's Medical Centre, Nottingham. Experiments were designed to be performed ex-vivo, immediately post-sacrifice, during experiments supporting other studies. Tested therapies (bevacizumab (250 μg/mL), aflibercept (250 μg/mL) with/without 3OC12-HSL (200 μM) were immediately applied post-sacrifice in (50 μL) to the corneal surface of each animal for a period of 1 hour, before being washed off using ice-cold PBS. The eyeballs were enucleated, immersed in OCT, and flash-frozen in isopentane cooled by liquid N2 before being stored at −80° C. for further processing.
OCT-embedded eyes were cut into 15 μm tissue sections using a cryostat (Leica 3050) and mounted on gelatin-coated slides, at cutting temperatures between −15 and −23° C. […]

[2] = tested on: laser-induced mouse model of CNV; assay: Laser-induced mouse model of choroidal neovascularisation (CNV); assay type: in vivo, C57BL/6J mice; conditions: day 7, topical drops to both eyes twice daily, bevacizumab 250 μg/mL
Experimental: FIG. 7: Anti-angiogenic efficacy of Bevacizumab with and without 3OC12-HSL (agent) in a laser-induced mouse model of CNV.in a mouse model of choroidal neovascularisation. C57BL/6J mice (n=6 per group) were subjected to laser photocoagulation (Merilas, 532α, 450 mW, 130 ms, 75 μm, 4 lesions per eye) on day 0. Post lasering animals received twice daily topical drops to both eyes10 μL of bevacizumab (250 μg/mL) with/without 3OC12-HSL and control vehicle only) for a total of 14 days. FFA was performed on days 7 and 14 and lesion area measured using Fiji software, n=lesions (mice). All data and graphs were calculated with Fiji and GraphPad Prism v8 and statistical analysis using an t-test, with Welch's correction, * p=<0.05, ** p=<0.01. Data bars represent mean±SEM. Scale bar 200 μm.
Six to eight week-old female C57BL/6J mice (16-20 g, Charles River, UK) were anaesthetized with an intraperitoneal (i.p.) injection of 50 mg/kg ketamine hydrochloride (Ketaset®, 100 mg/mL) and 0.5 mg/kg medetomidine hydrochloride (Sedastart®, 1 mg/mL). The pupils were dilated with a drop of 5% phenylephrine hydrochloride and 0.8% tropicamide to each eye. […] Fundus angiograms were imported into Fiji software and lesions were traced by a masked observer and lesion area was quantified over treatment time and compared between treatment groups. […]

[3] = tested on: ex vivo porcine skin

Substance: Bevacizumab: recombinant humanized monoclonal IgG1 antibody which binds to human VEGF (MW 149 kDa)
- fluorescence in eye sections (CLSM) [1]: No fluorescence was detected
- average lesion area [2]: 2.86±0.47×10^4
- penetration through skin [3]: 5 mm

Source: patent US20250302816A1, “DISRUPTION OF EPITHELIAL BARRIERS FOR MOLECULAR DELIVERY ENHANCEMENT OR EXTRACTION OF EXTRACELLULAR FLUIDS” (The University of Nottingham, priority 2022, published 2025)
